Target: fluorescein-labeled Fc-III (Fluorescein-Ahx-…-NH2)
Assay: other fluorescence titration

limit of detection by fluorescence intensity [g/L] | fold increase of fluorescence intensity at 2.5 g/L [fold] | Substance
0.1 | – | murine IgG1 (antibody)
0.0001 | 1.8 | human IgG1 adalimumab biosimilar Exemptia (antibody)

Source: paper PMC8525972
